System: peptide library, one residue held at a place counted from the Y acceptor
Test: relative phosphorylation of the sub-library (ratio to the mean residue at this position); higher = residue favoured
Method in brief: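 Purified recombinant kinases were given 50 μM ATP with γ-32P-ATP and biotinylated Tyr-centred peptide library mixtures for 90 min in 384-well plates. Peptides bound to streptavidin membranes were rinsed and quantified by phosphorimaging, and intensities were normalized per position by the sum of the 18 randomized residues (16 with the Ser/Thr-free library) and multiplied by that number. The reported values are phosphorylation relative to the mean randomized residue.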

TESK1, construct: aa1-345, human, sequence (Q15569 1-345, looked up): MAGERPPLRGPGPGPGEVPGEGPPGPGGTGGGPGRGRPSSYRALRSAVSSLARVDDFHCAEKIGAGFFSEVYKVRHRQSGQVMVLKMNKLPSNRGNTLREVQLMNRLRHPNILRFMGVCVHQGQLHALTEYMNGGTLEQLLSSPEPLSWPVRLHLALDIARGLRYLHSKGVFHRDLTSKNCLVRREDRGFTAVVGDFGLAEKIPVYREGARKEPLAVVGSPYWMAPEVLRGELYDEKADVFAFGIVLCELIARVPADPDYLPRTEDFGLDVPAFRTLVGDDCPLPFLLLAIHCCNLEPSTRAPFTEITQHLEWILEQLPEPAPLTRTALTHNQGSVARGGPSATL
TEK, construct: aa771-end, human, sequence (Q02763 771-1124, looked up): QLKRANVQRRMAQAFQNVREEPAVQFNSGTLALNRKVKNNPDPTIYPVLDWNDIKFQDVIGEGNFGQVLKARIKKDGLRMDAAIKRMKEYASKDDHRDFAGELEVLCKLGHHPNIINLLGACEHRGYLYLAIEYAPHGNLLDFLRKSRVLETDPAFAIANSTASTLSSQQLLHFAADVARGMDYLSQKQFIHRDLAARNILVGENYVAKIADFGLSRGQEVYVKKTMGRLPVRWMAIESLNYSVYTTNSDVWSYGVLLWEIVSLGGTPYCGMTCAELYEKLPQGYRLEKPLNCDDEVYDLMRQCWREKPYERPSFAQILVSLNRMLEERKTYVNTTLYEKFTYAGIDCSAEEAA

SYK, construct: Full length, human (from UniProt P43405)
relative phosphorylation
Conditions	at +1	at +2	at +3	at +4	at +5	at -1	at -2	at -3	at -4	at -5
A fixed	0.893	0.772	0.955	0.937	0.988	0.68	0.908	0.734	1.07	0.954
D fixed	1.01	1.13	0.812	1.23	1.14	4.23	2.04	2.29	1.89	1.54
E fixed	4.05	1.74	0.941	1.39	1.2	3.04	2.21	2.61	1.96	1.49
F fixed	0.838	1.27	1.12	1.09	1	0.665	0.675	0.914	1.07	1.02
G fixed	0.363	0.78	1.2	0.965	0.96	0.379	1.04	0.896	0.964	1.03
H fixed	0.665	0.752	0.813	0.988	0.919	0.673	0.863	0.873	0.769	0.933
I fixed	1.22	1.02	1.51	0.751	0.826	1.17	0.766	0.689	0.773	0.949
K fixed	0.25	0.588	0.584	0.875	0.916	0.204	0.46	0.459	0.593	0.681
L fixed	0.86	0.929	1.02	0.802	0.966	0.912	0.837	0.805	0.99	1.04
M fixed	0.907	0.965	0.924	1.1	0.944	0.725	0.728	0.758	0.818	0.944
N fixed	0.505	1.11	0.771	0.896	1.03	1.02	1.21	1.26	0.868	1.13
P fixed	0.288	0.669	1.67	1.08	1.27	0.672	1.03	0.868	1.08	0.966
Q fixed	1.1	0.972	0.761	1.11	0.983	0.674	1.13	0.864	1.11	1.08
R fixed	0.302	0.74	0.619	0.856	0.926	0.219	0.535	0.523	0.641	0.716
S fixed	1.1	1.01	0.892	0.97	0.965	0.587	1.1	0.915	0.758	0.895
T fixed	1.23	1.02	0.907	0.932	1.1	0.779	0.832	0.885	0.651	0.725
V fixed	1.47	0.978	1.4	0.874	0.89	0.935	0.857	0.703	0.811	0.772
W fixed	0.951	1.56	1.1	1.14	0.961	0.44	0.771	0.948	1.19	1.14
pThr fixed	3.24	2.33	0.946	1.54	1.38	6.21	3.86	2.93	2.36	1.85
pTyr fixed	6.41	3.62	1.53	1.73	1.32	4.49	2.56	3.83	2.99	2.2

TEK, construct: aa771-end, human (from UniProt Q02763)
relative phosphorylation
Conditions	at +1	at +2	at +3	at +4	at +5	at -1	at -2	at -3	at -4	at -5
A fixed	0.824	0.564	0.495	0.84	1.16	0.673	0.88	0.762	1.02	0.755
D fixed	0.525	0.606	0.254	0.752	0.411	0.863	0.972	0.981	0.932	0.844
E fixed	1.78	1.11	0.233	0.854	0.367	1.07	1.19	1.06	0.927	0.772
F fixed	0.935	1.43	1.97	1.16	0.471	1.19	0.833	1.21	0.976	1.18
G fixed	0.429	0.332	0.395	1.05	1.68	0.512	1.11	0.972	1.3	1.16
H fixed	1.12	0.955	1.47	1.06	0.691	1.2	1.09	1.08	0.997	1.03
I fixed	1.37	1.07	1.89	0.823	0.478	1.42	0.936	0.794	0.792	0.969
K fixed	0.577	0.6	0.665	0.986	0.996	0.594	0.83	0.828	1.26	1.26
L fixed	1.06	1.67	1.49	1.11	0.509	1.92	0.94	0.854	0.908	0.898
M fixed	1.16	1.4	1.18	1.42	0.608	1.5	0.868	0.988	0.839	0.948
N fixed	0.54	1.01	0.429	0.846	0.844	1.03	1.15	1.27	1.09	1.14
P fixed	1.31	0.606	0.505	1.43	3.89	0.878	0.913	1	1.07	0.967
Q fixed	1.15	0.913	0.581	1.31	0.866	0.891	1.25	1.01	1.16	1.03
R fixed	0.705	0.717	0.658	1.05	0.944	0.56	0.935	0.936	1.22	1.37
S fixed	0.816	0.725	0.445	0.795	1.97	0.756	1.06	1.11	0.917	0.963
T fixed	0.951	0.873	0.746	0.734	1.03	0.921	1.08	1.06	0.789	0.955
V fixed	1.89	1.03	1.81	0.871	0.498	1.22	0.926	0.941	0.787	0.852
W fixed	0.848	2.39	2.79	0.901	0.587	0.812	1.02	1.15	1.03	0.901
pThr fixed	0.806	1.6	0.252	0.346	0.313	1.22	0.849	0.769	0.71	0.686
pTyr fixed	2.39	1.81	0.341	0.473	0.276	1.97	0.786	1.34	0.874	0.643

TESK1, construct: aa1-345, human (from UniProt Q15569)
relative phosphorylation
Conditions	at +1	at +2	at +3	at +4	at +5	at -1	at -2	at -3	at -4	at -5
A fixed	0.921	0.778	0.879	0.762	0.876	0.971	0.967	0.874	0.973	0.938
D fixed	0.992	0.998	0.881	0.902	0.794	0.977	0.822	0.931	0.858	0.85
E fixed	0.876	0.917	0.871	0.854	0.839	0.953	0.833	0.776	0.792	0.742
F fixed	0.935	1.11	0.936	0.966	0.869	0.778	0.911	0.926	0.984	0.883
G fixed	0.887	0.899	0.928	1.03	0.915	1	1.09	1.11	1.13	1.05
H fixed	1.01	1.09	1.06	1.07	1.17	0.962	0.976	0.915	0.949	0.975
I fixed	0.796	0.626	0.682	0.781	0.734	0.774	0.952	0.79	0.823	0.861
K fixed	1.13	1.27	1.23	1.3	1.15	1.18	1.34	1.25	1.26	1.35
L fixed	0.81	0.812	0.783	0.913	0.807	0.831	0.92	0.918	0.816	0.862
M fixed	0.76	0.796	0.831	0.928	0.841	0.835	0.81	0.846	0.869	0.82
N fixed	1.05	1.16	1.11	0.978	0.964	1.17	1.01	0.971	0.921	0.964
P fixed	1.02	1.09	1.15	1.28	1.05	1.26	1.07	1.36	1.16	1.1
Q fixed	1.09	1.09	1.02	1.09	0.929	1	0.842	1.04	0.891	0.831
R fixed	1.18	1.25	1.23	1.19	1.27	1.26	1.27	1.29	1.2	1.27
V fixed	0.817	0.69	0.72	0.764	0.713	0.743	0.946	0.864	0.875	0.881
W fixed	1.72	1.44	1.69	1.19	2.09	1.29	1.24	1.14	1.5	1.62
pThr fixed	0.988	0.893	0.765	0.809	0.615	1.05	0.932	0.934	0.929	0.776
pTyr fixed	0.746	0.819	0.738	0.714	0.627	0.861	0.798	0.896	0.669	0.711

— the supplement of paper PMC11136658
